Consider 50 sequences from the supplement of paper PMC9112550, “Optimization of the antimicrobial peptide Bac7 by deep mutational scanning” (BMC Biology, 2022).

This data set has as its system Escherichia coli TOP10. Kind of data set: shrunken log2 fold change of peptide-encoding DNA abundance (4.5 h post-induction vs induction); higher = less antimicrobial activity (less host growth inhibition). The note with it: time post-induction: 4.5 h; library: site-saturation at positions 5, 18, 19, 20.
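Further: peptides expressed intracellularly from a pBAD plasmid library in pooled LB shake-flask culture, induced with 0.3% L-arabinose, DNA abundance read by NGS, three biological replicates, DESeq2 with apeglm shrinkage.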

In the case of RRIRTRPPRLPRPRPRPIGEPRP, the “shrunken log2 fold change” value is -0.195. The value for RRIRDRPPRLPRPRPRPNKHPRP was -0.425; that for RRIRKRPPRLPRPRPRPMFEPRP was 0.312. For RRIRIRPPRLPRPRPRPHFPPRP, the “shrunken log2 fold change” value came out at 0.00276. The value for RRIRWRPPRLPRPRPRPQIIPRP was -0.805; that for RRIRHRPPRLPRPRPRPTTKPRP was 0.00227; that for RRIRVRPPRLPRPRPRPYRFPRP was -0.0944. As for RRIRQRPPRLPRPRPRPHGPPRP, the “shrunken log2 fold change” value is -0.102.

For RRIRWRPPRLPRPRPRPSMTPRP, the “shrunken log2 fold change” value amounted to 0.178. The value for RRIRDRPPRLPRPRPRPAFMPRP was 0.699; that for RRIRGRPPRLPRPRPRPDDPPRP was 0.0369. The value for RRIRCRPPRLPRPRPRPIQKPRP was -0.127; that for RRIRTRPPRLPRPRPRPDTMPRP was 0.0881. The value for RRIRERPPRLPRPRPRPGTGPRP was 0.229.

In the case of RRIRGRPPRLPRPRPRPQQRPRP, the “shrunken log2 fold change” value came out at 1.43. To RRIRWRPPRLPRPRPRPYTCPRP belongs -1.7; to RRIRMRPPRLPRPRPRPNRRPRP, 0.179. To RRIRPRPPRLPRPRPRPRRCPRP belongs 0.388.

For the sequence RRIRLRPPRLPRPRPRPSKNPRP, the “shrunken log2 fold change” value is -0.296. The value for RRIRNRPPRLPRPRPRPMTWPRP was 0.0964; that for RRIRWRPPRLPRPRPRPIKLPRP was -0.216; that for RRIRSRPPRLPRPRPRPNSPPRP was -0.149. As for RRIRDRPPRLPRPRPRPMYNPRP, the “shrunken log2 fold change” value is -0.354.

For the sequence RRIRVRPPRLPRPRPRPKSSPRP, the “shrunken log2 fold change” value is -0.0704.

RRIRVRPPRLPRPRPRPSESPRP: the “shrunken log2 fold change” value stood at 0.0556.

Turning to RRIRARPPRLPRPRPRPNWSPRP, the “shrunken log2 fold change” value is 0.225. For the sequence RRIRSRPPRLPRPRPRPPPKPRP, the “shrunken log2 fold change” value is 0.708.

Take RRIRTRPPRLPRPRPRPPHCPRP: the “shrunken log2 fold change” value is 0.474. To RRIRYRPPRLPRPRPRPTEWPRP belongs -0.0714; to RRIRNRPPRLPRPRPRPPNWPRP, 0.217.

As to RRIRCRPPRLPRPRPRPFQVPRP, the “shrunken log2 fold change” value is -0.335. The value for RRIRRRPPRLPRPRPRPAIQPRP was 0.561; that for RRIRFRPPRLPRPRPRPVMWPRP was 0.0942. With RRIRVRPPRLPRPRPRPFTHPRP, the “shrunken log2 fold change” value was -0.222. In the case of RRIRPRPPRLPRPRPRPNVPPRP, the “shrunken log2 fold change” value is -0.11. To RRIRTRPPRLPRPRPRPLVLPRP belongs -0.162; to RRIRDRPPRLPRPRPRPICCPRP, 0.037; to RRIRTRPPRLPRPRPRPATQPRP, 1.54. The value for RRIRYRPPRLPRPRPRPGSYPRP was -0.349. Take RRIRRRPPRLPRPRPRPTKMPRP: the “shrunken log2 fold change” value is 0.248.

For RRIRHRPPRLPRPRPRPCWNPRP, the “shrunken log2 fold change” value is -0.151. To RRIRQRPPRLPRPRPRPFCLPRP belongs -0.336; to RRIRRRPPRLPRPRPRPECLPRP, 0.635; to RRIRSRPPRLPRPRPRPAPPPRP, 0.458.

With RRIRERPPRLPRPRPRPGQEPRP, the “shrunken log2 fold change” value was found to be 0.0214. The value for RRIRHRPPRLPRPRPRPYWNPRP was -0.98; that for RRIRQRPPRLPRPRPRPNNLPRP was -0.401. The value for RRIRLRPPRLPRPRPRPWAMPRP was -0.0431; that for RRIRDRPPRLPRPRPRPHNKPRP was -0.373. To RRIRYRPPRLPRPRPRPRKPPRP belongs 0.0457.
